Measurements from US7256259 (WISCONSIN ALUMNI RESEARCH FOUNDATION, dated 2007).
Blank lines part the entries; values can stand above or below the binder they belong to. Where no end group is shown, it is not given here. [ ]: non-standard residue; d: D form. The star is where a group is joined. Lys(N3) = [N-]=[N+]=NCCCC[C@H](N)C(=O)O; N3 = azido group, [N-]=[N+]=N*; PEG = not defined here

Target: T1, S-protein (UniProt P61823 47-150)
T1 construct: also called purified S-protein; commercial S-protein (Sigma Chemical)
T1 sequence (looked up): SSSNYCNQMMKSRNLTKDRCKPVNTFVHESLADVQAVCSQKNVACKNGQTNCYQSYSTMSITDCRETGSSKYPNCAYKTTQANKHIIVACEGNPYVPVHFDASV
Experiment: S-protein incubated on a glass slide with immobilized azido-S15; detected by activity assay and immunostaining
Description: An amine-derivatized glass slide was treated with an excess of PEG having succinimidyl ester termini followed by diphenylphosphinomethanethiol resulting in a surface-bound phosphinothioester, as illustrated in Scheme 2. It is believed that the PEG layer (Mr) 3,400) prevented the non-specific attachment of protein to the glass surface. Serial dilutions of (N_3)Lys1 S15 and (N_3)Lys1 S15 were spotted on this phosphinothioester-derivatized slide. The peptide concentrations were 5.64 µM-56.4 pM for (N_3)Lys1 S15 and 4.38 µM-43.8 pM for (N_3)Lys1 S15. Afterwards, S-protein was spotted on the slide, which was washed with buffer. If S15 was successfully immobilized to the slide through the Staudinger ligation, the S-protein would bind to the immobilized S15 resulting in immobilized RNase S'.
Two types of assays were used to detect the presence of immobilized RNase S'. First, the ribonucleolytic activity of each spot was determined with a fluorogenic substrate. […]
RNase S' attached to the plate was visualized by immunostaining. […] RNase S' was detected by using a Fluorinate SI fluorescence scanner (Molecular Dynamics). (See FIG. 1A) The quantity of immobilized protein was determined with IMAGEQUANT densitometry software (Molecular Dynamics) and a standard curve generated by spotting various concentrations of Alexa Fluor® 488-conjugated secondary antibody.

binding result: binds
B1: (N3)Lys1 S15 (peptide)
peptide: [Lys(N3)]ETAAAKFERQHMDS
notes: also called azido-S15

binding result: binds
B2: N3-PEG-S15 (peptide)
peptide: {N3-PEG}-KETAAAKFERQHMDS
modifications: reading uncertain
notes: Synthetic S15 (first 15 residues of S-peptide) carrying N3-PEG at its N-terminus; In the assay it was immobilized on a phosphinothioester-derivatized glass slide; also called azido-S15; azido-peptide (main-chain azide)
